Test results reported in patent publication US20060257938A1, “Method of screening for drugs that block ligand binding to a lipid binding protein” (priority 2005, published 2006).
Where a chain is given by its changes, count along the chain named.

B1: 102C, 72A (protein, listed as Rattus norvegicus)
chain: AFDGTWKVDRNENYEKFMEKMGINVVKRKLGAHDNLKLTITQEGNKFTVKESSNFRNIDVVFELGVDFAYSAADGTELTGTWTMEGNKLVGKFKRVDNGKECIAVREISGNELIQTYTYEGVEAKRIFKKE
modifications: PEPTIDE (1)...(131) wild-type rat intestinal fatty acid binding protein
B2: 21Y, 72A (protein, listed as Rattus norvegicus)
chain: B1 chain with M21Y, C102L
modifications: PEPTIDE (1)...(131) wild-type rat intestinal fatty acid binding protein
B3: 62P, 72A (protein, listed as Rattus norvegicus)
chain: B1 chain with F62P, C102L
modifications: PEPTIDE (1)...(131) wild-type rat intestinal fatty acid binding protein
B4: 14W 72M 117A (protein, listed as Rattus norvegicus)
chain: B1 chain with Y14W, A72M, C102L, Y117A
modifications: PEPTIDE (1)...(131) wild-type rat intestinal fatty acid binding protein
B5: 38Y, 72A (protein, listed as Rattus norvegicus)
chain: B1 chain with L38Y, C102L
modifications: PEPTIDE (1)...(131) wild-type rat intestinal fatty acid binding protein
B6: 38T, 72A (protein, listed as Rattus norvegicus)
chain: B1 chain with L38T, C102L
modifications: PEPTIDE (1)...(131) wild-type rat intestinal fatty acid binding protein
B7: 31I, 72A (protein, listed as Rattus norvegicus)
chain: B1 chain with G31I, C102L
modifications: PEPTIDE (1)...(131) wild-type rat intestinal fatty acid binding protein
B8: 38S, 72A (protein, listed as Rattus norvegicus)
chain: B1 chain with L38S, C102L
modifications: PEPTIDE (1)...(131) wild-type rat intestinal fatty acid binding protein
B9: 36I, 72A (protein, listed as Rattus norvegicus)
chain: B1 chain with L36I, C102L
modifications: PEPTIDE (1)...(131) wild-type rat intestinal fatty acid binding protein
B10: 78F, 72A (protein, listed as Rattus norvegicus)
chain: B1 chain with L78F, C102L
modifications: PEPTIDE (1)...(131) wild-type rat intestinal fatty acid binding protein
B11: 14M 72M 117A (protein, listed as Rattus norvegicus)
chain: B1 chain with Y14M, A72M, C102L, Y117A
modifications: PEPTIDE (1)...(131) wild-type rat intestinal fatty acid binding protein
B12: 23W, 72A (protein, listed as Rattus norvegicus)
chain: B1 chain with I23W, C102L
modifications: PEPTIDE (1)...(131) wild-type rat intestinal fatty acid binding protein
B13: 38M, 72A (protein, listed as Rattus norvegicus)
chain: B1 chain with L38M, C102L
modifications: PEPTIDE (1)...(131) wild-type rat intestinal fatty acid binding protein
B14: 36V, 72A (protein, listed as Rattus norvegicus)
chain: B1 chain with L36V, C102L
modifications: PEPTIDE (1)...(131) wild-type rat intestinal fatty acid binding protein
B15: 31Q, 72A (protein, listed as Rattus norvegicus)
chain: B1 chain with G31Q, C102L
modifications: PEPTIDE (1)...(131) wild-type rat intestinal fatty acid binding protein
B16: 31V, 72A (protein, listed as Rattus norvegicus)
chain: B1 chain with G31V, C102L
modifications: PEPTIDE (1)...(131) wild-type rat intestinal fatty acid binding protein
B17: 38Q, 72A (protein, listed as Rattus norvegicus)
chain: B1 chain with L38Q, C102L
modifications: PEPTIDE (1)...(131) wild-type rat intestinal fatty acid binding protein

test: Probe fluorescence ratio response to oleic acid relative to ADIFAB2; type: binding; settings: response relative to ADIFAB2
Method in brief: (§1)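 Fluorescently labeled rat intestinal FABP variants were read at two emission wavelengths, near the unbound maximum (about 420 to 480 nm) and the FFA-bound maximum (about 495 to 580 nm). R = Fλ1/Fλ2 after subtracting probe-free intensity; ΔR = R+agent − R0, normalized to ADIFAB2 (rI-FABP-L72A).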

Row | Molecule | DR/DR OA
1 | B1 | 0.11
2 | B2 | 1.982
3 | B3 | 1.448
4 | B4 | 0.706
5 | B5 | 1.717
6 | B6 | 1.547
7 | B7 | −0.213
8 | B8 | 1.235
9 | B9 | 0.773
10 | B10 | 1.912
11 | B11 | 1.054
12 | B12 | 0.448
13 | B13 | 1.630
14 | B14 | 0.869
15 | B15 | 1.313
16 | B16 | 0.081
17 | B17 | 1.842

test: Probe fluorescence ratio response to linolenic acid relative to ADIFAB2; type: binding; settings: response relative to ADIFAB2
Method in brief: as §1

Row | Molecule | DR/DR LNA
18 | B1 | 0.12
19 | B2 | 1.881
20 | B3 | 1.581
21 | B4 | 1.286
22 | B5 | 1.884
23 | B6 | 1.639
24 | B7 | 0.413
25 | B8 | 1.295
26 | B9 | 1.004
27 | B10 | 2.033
28 | B11 | 2.031
29 | B12 | 0.956
30 | B13 | 1.697
31 | B14 | 1.082
32 | B15 | 1.494
33 | B16 | 0.776
34 | B17 | 1.986

test: Probe fluorescence ratio response to linoleic acid relative to ADIFAB2; type: binding; settings: response relative to ADIFAB2
Method in brief: as §1

Row | Molecule | DR/DR LA
35 | B1 | 0.12
36 | B2 | 2.015
37 | B3 | 1.572
38 | B4 | 1.009
39 | B5 | 1.818
40 | B6 | 1.577
41 | B7 | 0.168
42 | B8 | 1.286
43 | B9 | 0.884
44 | B10 | 1.955
45 | B11 | 1.956
46 | B12 | 0.794
47 | B13 | 1.805
48 | B14 | 1.062
49 | B15 | 1.465
50 | B16 | 0.384
51 | B17 | 1.936

test: Probe fluorescence ratio response to palmitic acid relative to ADIFAB2; type: binding; settings: response relative to ADIFAB2
Method in brief: as §1

Row | Molecule | DR/DR PA
52 | B1 | 0.09
53 | B2 | 1.094
54 | B3 | 1.247
55 | B4 | 0.515
56 | B5 | 1.518
57 | B6 | 1.022
58 | B7 | 0.091
59 | B8 | 0.724
60 | B9 | 0.815
61 | B10 | 1.416
62 | B11 | 0.870
63 | B12 | 0.492
64 | B13 | 1.131
65 | B14 | 0.713
66 | B15 | 1.039
67 | B16 | 0.206
68 | B17 | 1.551

test: Probe fluorescence ratio response to arachidonic acid relative to ADIFAB2; type: binding; settings: arachidonic acid; response relative to ADIFAB2
Method in brief: as §1

Row | Molecule | DR/DR AA
69 | B1 | 0.14
70 | B2 | 2.378
71 | B3 | 1.548
72 | B4 | 0.945
73 | B5 | 2.081
74 | B6 | 1.598
75 | B7 | 0.303
76 | B8 | 1.175
77 | B9 | 0.812
78 | B10 | 2.001
79 | B11 | 1.649
80 | B12 | 0.618
81 | B13 | 1.850
82 | B14 | 1.026
83 | B15 | 1.024
84 | B16 | 0.395
85 | B17 | 1.976
